Assay: label from the status in PepcDB records

**Q.** Which protein production does the source give for “MKKIHLNKWKHKTSLYLMLFCLSLPLALTPLSVSATEKETESEQTAPTSQKDASETTSETQTVESSTNDQNQNNSTISLPESSSTTSLAPSESLTSDSKKLAQKEEVVASTTVAEPKAAASSTISVPDPNLKQTILSTLGLATTAELTQTDMDKLTNLTLNSVDIYSLVGLEHATNLSSIYINVNNKITDFTPLESLTKLTFVTLQTSSLTSDNFPNLTASQGLTNLSIGGTSVDNSVLAKIVNLKALVRLYMDSNMNITNIEPLKVLPNLKSLSVQFCGITDFTVIKDFPIMSDLAAFGQNTGRNDPPTTVTRSSLKYNEDEQSVYIPFSMMPNRMTNFDGYIPPFSTSNSASNTYFDFNGTQLPASRLQIDDNGITINSVSPEEYQGIKSFEYNARLNNPAGTYAVPDGYTFYAISSGTYLHQFDVVDDGAPVTVKYQDENGQELAPSELLNGYVGATYNSKELSFQGYSLIKVDGDATGKFTDSPQTVTYIYQKNAKLLGQVTVKYIDTDGKALFGDVIQTGNIGETYHTEKKELTGYTFKNIIGNASGQYTNSPQTVTYVYEKNANPNKPEEVIPDSSDKNNVNPDSRENETTKGSKTVKDKESVVTSKEKNLPETGDKEQGMKKITLFGSFLLILGSLVLFIRFRKVD” here?
**A.** The protein production was “failed”.

**Q.** Which protein production does the source give for “MKKIIGLLFIVSCCILLSPTIKVQADTVPLPAPIIEAFPVEAIAEAIAEELDKDSVNDIITQEDLDTITILPFPGLNLTGEDLNVLNNEVFTNATELAIWSNNIGEMPDLSESLPALETIKASDANITQFPNANYPNLTTVDFSKNNFGINIPEFIGMEKLVSINMEQAELSGYIAKDIWMNMPNLETLLLRDNHLISIPEDIFLTGQIRNRSFDGQTATYPPRTIKQGENLDVFVPFIYQALDFIAPAPGNEMIINDNGEFLYKPVYPSYTGSYMYTIETAGLEPGEHLLEISLNYNGSEYLGWYDFPVTITE” here?
**A.** The protein production was “failed”.

**Q.** For “MKKILGTLLAVLFSFMAINDSAAQNTVLRFNKDGKFKIVQFTDVHFKYGNPASDVALERIGEVLDAEHPDLVIFTGDVVYSSPADKGMLQVLGQVERRHLPFVVTFGNHDNEQGKTRAELYDLIRGVAGNLLPDRGASPSPDYILTMKSSADASKDAALLYCMDSHSYSSLKDVDGYAWLTFGQVSWYRAQSAAYTARNGGKPYPALAFFHIPLPEYNEAAANENAILRGTRMEKACAPQLNTGMFAAMKEAGDVMGVFVGHDHDNDYAVMWKNILLAYGRFTGGNTEYNHLPNGARVIVLNEGTRTFETWIRQKGGVVDSTSYPSDYVKDDWRKR”, which protein production is on record?
**A.** Its protein production is “failed”.

**Q.** Which protein production does the source give for “MKKISILFIFSLILGLFVSEVSAAGPRLKKRPKHVVLVAFDGLSAVAIRNHPMPNFNRLMKEGASTLNNRSILPSSSAPNWASMFTGVGPELHGYTTWGSKTPEIPPFITNQYGRFPGLYGLLRDTHPKAELGYIYEWDGMKYLVDSLAINHFVHAPQTKDHPKGATQFAVNYLKEKKPMYCAVIFEYPDHTGHTYKWESKEYYEKLDELDGYLGEIVAAIEEAGMMDETVIILTADHGGIGTNHGGKTLNEMETPLVFYGKGVKKNYKITESTMVIDVPATEAWLLGVEPHEAWLGNPVTTAFFTK” here?
**A.** The protein production was “failed”.

**Q.** For “MKKKAALATLAMLPLGVVNAHADGDIGIVTINYLNVRNEPTAESSIAFVAKKDDKVLIKDSSNGWYKIKAESGQEGWASSKYIAKSNSDSLRTSTNKEKQVISNSLNMRNGAGTSYRVITVLKKGQKVEVISESNGWSKIKYDGRLGYVSSSYLGDVSNSTNKSKTKQVNTTSLNVRSGPNTSYGLLGKLPKGSKVEVISESNGWSKIKYNGKDAYVSSMYLSDVSQSNSDNSSQSNDKKNTDKVVNTASLNVRSGPGSTYSKLGKVYKGSKVTVLSESSGWAKINFNNKEAFVVGNYLSTSADTSNNNSNSNYDNSSNSNGNNSSSSGQVNGMSGISGAKIDYKSLSYTLESHISKQVEKAASGGNVIAPSNRKSTPSPEFSTFSAQRTSSFVNASSSDIEYYLNPKNFTNTTKGMMQFLKINSYRDGISESSLNSYLNGLSSSVFKNQGAAFINAAKKYNIDVVYLVSHAMWETAYGKSTLAQGQTLTSYKGQPLSKPVKVYNFFGIGAIDKSANVSGAEAAYSNGWTSVETTIDGSAKWISQNYVNSSKYNQNTIYKMKWNYDYTWHQYATDVNWANGISGIMENLIGLYRGGSSLVFEVPQYK”, which protein production is on record?
**A.** The protein production was “failed”.

**Q.** For “MKKKLDRREAVRSEKKTLPWRKKRSSRGCCWRRRVATAVGEEESRRLMEKTRRDGEEEEVTSDGGSWNGKKKLYRRRRRYLGEETDRLAAEAGEEELRRLLENKRRGREEEERRRRNQIEEEERRRRRK”, which protein production is on record?
**A.** Its protein production is “failed”.

**Q.** With “MKKKNILFFLLCFLLTSLSAQTLEQARGMYGRGQYAEAKPVFQKYVKSQPANGNYNLWYGVCCLKTGNAAEALKYLETAVKKRIPSGQLYLAQTYNDLYRFQDAVDCYEEYIADLSKRKKPTEEAEQLLEKAKGNLRMLKGVEDVCVIDSFVIDKANFLKAYKISEESGKLFTYNDYFKTKGYHPGTVYETEIGNRIYYSEQGEESLNILSKTKMLDEWSQGKPLPGSINASGNANYPYVLSDGVTIYYASDGDGSMGGYDIFVTRYNTNTDTYLVPENVGMPFNSPYNDYMYVIDEYNNLGWFASDRYQPEDKVCIYVFVPNDSKRTYNYEAMEPEKMIELAQLHSLESTWKDSKIVDDARQRLEAVINHKPAVEQNFDFEFIIDDHSTYHHLTDFKSPKAKQLYLKYEQMEKDYRQQTGKLKSQREGFARSNKDEQSKMAPAIRDLEKRVLQMSEELDKQAIEVRNAEKQNLK” as the sequence, how does the protein production read?
**A.** Its protein production is “failed”.

**Q.** Which protein production does the source give for “MKKKYFGTDGIRGKVGDFPITPDFFLRLGYAVGKVLLASDRQLAADKRPTVLIGKDTRISGYMLESALEAGFSAAGVDVLLSGPLPTPAVAYLVRALRIQAGAVISASHNPFDDNGIKFFSSAGSKLPDSMELQIEAELDQPMKTTPSIKLGRVQRLRDAAGRYIEFCKSTFPNQLDLRGLRIVVDCANGADYHIAGHVMHELGADVITTHASPDGFNINYECGATHIETLQGSILQHKADIGIAVDGDGDRVLMVSREGVLYDGDSLAYIIAKHRQQLGELQGGVAGTLMTNLAVEQAFERLGIPFARANVGDRYVSELLQQNDWYLGAENSGHIICRDKHTTGDGIISALQVLYALRDTGLTLADFMRDVPFFPQRLINVKVSGNFDFRSNPAVAACKNEAEQALGNDGRILLRASGTEPLIRVMVEGKVLQQTDYWAEKIAETIRQQAASSMTGS” here?
**A.** Its protein production is “failed”.

**Q.** With “MKKLFTNTIFIQSNLERLSTILKSPQNLSKWVPDINSVSPKDDYFLISRSSSALNNFEKISVTSQDNSIIYTSTGGRLEYELHFDLTNKDDRTLVEQTLLVDETLTKLPLTLLAPIAKHAFHENLSSLERLIAISLEHHHHHH” as the sequence, how does the protein production read?
**A.** The protein production was “failed”.

**Q.** With “MKKLINIILLSLIFVFCFNLKVLANDNLESSKEKIDNDSRIERFYDYINNLETEEDILGNMSAKEYIMNYLESGEDPITLKKIGASILSYIFRELNIVLKFIASILVIALLSALLKNLQDAFNIEEGVTQIAFFACYALLIMLLTKSFFISLNLGKEVLTSIIDFMNVIVPVIVMLIATSGGVTSAVTIDPIVLGAVSITPRIYTYFLFPLILAYFTLQFVNNLSSEFKIDRMCKFIKQVVMISQGFILTIFVGILTLRGMTADTLDAVAVKTVKFAVDNFVPIVGKAFSDAITTVAGYSLAMKSVITSLGVIVIVVIVIYPIIKIGLMAICFKLTSAVIEPVVDSKISSSVETVGEALFMIMSCIISVSIMFFIMASMMATAGNFIVGG” as the sequence, how does the protein production read?
**A.** The protein production was “failed”.

**Q.** For “MKKLLTFIMACVISLGATAQISEKAFEKWHQNKYSMFIHFGLYSELGGVWEGNPVTRGYSEQIQSFAGIFSDWYGDTALRFNPTLFDADAIVSLAKEAGMRSIIITTKHHDGFCMFRTATTDYNSYDATPGKRDFIKEMAEACKRGGINFGIYFSLIDWHFPQAYPISSHNCDFITPQHHEFTKAQVTELLTNYGPISELWFDMGSNTPEQSKELYQLVHRLQPDCMVSGRLGNDQYDFSVMADNTYPEGSLQTAWQTAASMFDETWSYRSWQKRGDVHTKAMEKLRSLINVVSHGGNFLLNIGPKGDGSVVPFEREVLKEIGIWLKKNGEAIYGTEASPFREQFEWGTITRKGNNLYLILSGNRPADGKITLNVPGCKLQKADIKAIQKGQEMIFTLPADAYGKDIQVICATFDQPVKPQPMAAQRTPNYSYSCFDYYSNYRSTVSYQWSINKSNLNALEFTYTPQENGKELLVEVDGIPYTVTLDAGKAQALNLPSKTVWGQRYFCGPGSGLFDAPATIHTDPDKAPVRKGQWKEVNEEKAMFPSNILESYFLMQQVESPKAQDILVDVGAGNGIEIYLNGKSVMKHLNPYRCKFREEKVLLPLQKGSNQIVVRIYNRFEKETGYLLRPSAEQVIYKQKFTLPQVAKGKVHTVVVKQNNLPSIHKDTELSNLKVEAK”, which protein production is on record?
**A.** Its protein production is “failed”.

**Q.** Which protein production does the source give for “MKKLVHLSDFHYDGLRLSEEMLAEAIAVSNQVQPDLVLLTGDYVTTTPQPIHQLAKRLQKLQSHAGIYAILGNHDLYQKNSKTEITQALTKAGIQVLWNEIAYPLGEELPIVGIVDYYYREFNPQLLFNQLEPTTPRIVLCHNPDTAAMLQGWRVDLQLSGHTHGGLEHHHHHH” here?
**A.** Its protein production is “failed”.

**Q.** With “MKKQFLFLLLAVILLSSCATATLSEFPGVGRVKQYDFYSYDIPPAFDGFRIGFASDFHYESRFKRSELNSAVRALKSMHADVLLLGGDYRGKKGGNLDTLFTALSRVYTPYGTFAVMGNHDYGYCYSEVVEAMQKNHVRLMEHKSYKLMKDGQYIIVSGVRNPFDLKKNGDSPSQHFPADDFIILLTHTPDYAEDTDVSNANLVLAGHTHGGQVSLFKKYSPVKHSIYGNRFLTGWKENSKGTPIIITNGLGTSRVDVRLFTPSEVVLVVLHRVEKQKE” as the sequence, how does the protein production read?
**A.** The protein production was “failed”.

**Q.** With “MKKRFSNKVLIIGYGSVSQCTLPLLLDKLDIPLENITLIDFEDKSKALKKYTNQGLTFVREKITPENLDQVLSQNMENEGMIIDLSWNIDANEIVKWCHDHDVLYVNTSVEVWDPAEKFLTQSLLEKSLYLRQMRLQELSRDWKDAPTAVVDHGANPGLITHFVKQGLLDIAARTCEDKKVSPEDEQEIALLAKNRDFARLARKLGIRVIHCSERDTQIASRPKEVNEFVGTWSIEGLREEGTAPVEIAWGTHESKLPPLAHIPPYGPKNVILLPQMGVNAWVRSWIPDEEIVGMAIRHGESYGLSKLLTVWEGEKAVYRPTVHYAYMPSHDTLSSLCELRGRNYELQPRLRIMTNEIVSGEDIMGALLMGHSYNSWWTGSALSIEEARSLAPGQNATTLQVAAGIVAAILWMLENPREGVKTPEDLPHDFVLDIARPYLGKFISTPSDWTPLKNRKIFFKESPAVKHDPDPWQFENFIFVGLEHHHHHH” as the sequence, how does the protein production read?
**A.** The protein production was “not failed”.

**Q.** With “MKKRILFVSAIAIQCMMTSMALANDITSQQTAENIPFEKNQLSVRLNGEQYRSAFQIDLSDPNLILTIDTDLIPEEDIDALLPELNDSEEAQVSAFNEPKSLALRIEAKEKAANGDFVGALALLNEAEALTENPAKVLSMKGSVHYKLNQVELAIVSWKKALELDPSLTEVSDIIQWLEK” as the sequence, how does the protein production read?
**A.** Its protein production is “failed”.

**Q.** For “MKKSKYLTLLSVAALTLLTSGLGSQAVLADTDTAQTTNTSTNTTTDTSKTSTALNHQEAKGQKLTTPVGTLPNAQDAISNKAVLKRVHGYSWKTTPDVSAAGSQKATVVITYTDGTTSEVEVDLEVTGTGCASQNSPVAKTGLTVKVGKSLTARSAISNLSRLRNVDSVTWKQAPSTAKAGTVKGTVLVTYTDKSTDTVDVTVKVSSVVTTKKSVKKSKKKQYVTKTRKIILDRPGKNKTITQKVKLSRTVTTTTTTTKTYTDGKLTKTSKKAKKSYGKWSKGTWKSYKVPAISGYKRSTTKVKAKAVTSKTKNITVKVSYKRVLHKPANAPYYDPADMRAKTGAYYFQSSEKRAYPNLAKYKNVWIRVSILGNRVYVMSGKKVIYTMYSSAGRFEMTNGKYQSDTPRGTFYLKAAYGPSFMSSDGVGARYYMAYYGSDYLFHSVPINNYGSGVYYKGYHYGYGGVGSTAHLTVQGTNPDSLGCIRLTLSDARWLYGQRTSGKLKVGTKVVIKYK”, which protein production is on record?
**A.** The protein production was “failed”.

**Q.** Which protein production does the source give for “MKKSSILVFLLTYGLFYVSSILFPIDRMWYDALEKPSWTPSGMTIGIVWTVLYGLIALSVAIIYNKYGCKPKTFWFIFLLNYMCNQAFSYFQFSQKDLFLATIDCLLVAVTTLLLIAVSSSLSKVSTWLLIPYFLWATFATYLSWSIYSIN” here?
**A.** Its protein production is “failed”.

From a protein production outcome set (Wang et al. 2014)
